Data: US20110288005A1

Biological target: bovine pancreatic trypsin (Sigma T1426) (bovine) (UniProt P00760)
Assay: cell-based or functional assay

bovine pancreatic trypsin (Sigma T1426) (bovine), sequence (P00760 24-246): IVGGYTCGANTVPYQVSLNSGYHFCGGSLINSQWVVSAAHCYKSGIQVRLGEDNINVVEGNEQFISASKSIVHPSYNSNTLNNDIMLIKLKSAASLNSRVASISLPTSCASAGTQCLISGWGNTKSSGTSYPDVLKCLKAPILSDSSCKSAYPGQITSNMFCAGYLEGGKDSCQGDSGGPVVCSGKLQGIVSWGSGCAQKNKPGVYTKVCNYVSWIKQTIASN

Row | % Activity (compared to positive control plasma-derived aaT) | IC50 (µM), equilibrium trypsin inhibition assay | Substance
1 | 106% | 0.5 µM | aaT-XTEN_AE576
2 | 65% | 0.82 µM | aaT-XTEN_AE288
